Columns and labels:
[1] = biological target: T1, Rat tail tendon type I collagen (rat, UniProt P02454 152-1207; P02466 86-1125); test: solid-phase collagen-binding assay, anti-His detection, one-site binding model
[2] = biological target: T1, Rat tail tendon type I collagen; test: cell-based or functional assay

T1 sequence (P02454 152-1207 limits assumed, chain 1 of 2): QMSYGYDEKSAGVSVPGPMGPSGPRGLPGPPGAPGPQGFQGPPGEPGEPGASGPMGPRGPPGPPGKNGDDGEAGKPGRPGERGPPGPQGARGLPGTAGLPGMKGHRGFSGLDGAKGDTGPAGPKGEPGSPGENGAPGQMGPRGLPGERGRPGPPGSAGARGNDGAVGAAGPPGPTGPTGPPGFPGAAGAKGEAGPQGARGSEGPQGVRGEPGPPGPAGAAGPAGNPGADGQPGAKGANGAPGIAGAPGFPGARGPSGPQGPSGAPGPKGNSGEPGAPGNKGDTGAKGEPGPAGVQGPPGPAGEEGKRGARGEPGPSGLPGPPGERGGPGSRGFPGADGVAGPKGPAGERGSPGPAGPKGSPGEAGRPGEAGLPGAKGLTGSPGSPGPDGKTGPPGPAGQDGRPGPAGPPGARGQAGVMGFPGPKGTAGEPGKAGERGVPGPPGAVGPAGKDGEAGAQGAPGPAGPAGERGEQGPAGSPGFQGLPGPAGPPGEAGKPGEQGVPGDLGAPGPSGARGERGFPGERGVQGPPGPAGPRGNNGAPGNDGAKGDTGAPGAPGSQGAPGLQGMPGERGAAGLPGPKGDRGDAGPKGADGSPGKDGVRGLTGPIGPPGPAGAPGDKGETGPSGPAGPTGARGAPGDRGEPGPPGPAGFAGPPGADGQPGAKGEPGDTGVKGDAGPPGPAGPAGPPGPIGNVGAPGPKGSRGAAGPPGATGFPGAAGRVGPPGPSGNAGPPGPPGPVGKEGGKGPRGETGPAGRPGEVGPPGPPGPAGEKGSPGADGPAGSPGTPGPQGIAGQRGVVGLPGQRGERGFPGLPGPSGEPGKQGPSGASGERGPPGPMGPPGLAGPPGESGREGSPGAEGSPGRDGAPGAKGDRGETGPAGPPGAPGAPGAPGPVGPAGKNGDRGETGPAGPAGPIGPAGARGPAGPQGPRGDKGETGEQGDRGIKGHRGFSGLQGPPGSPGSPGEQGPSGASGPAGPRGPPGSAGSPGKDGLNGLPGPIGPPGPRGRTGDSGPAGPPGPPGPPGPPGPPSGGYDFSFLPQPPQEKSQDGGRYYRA
T1 sequence (P02466 86-1125 limits assumed, chain 2 of 2): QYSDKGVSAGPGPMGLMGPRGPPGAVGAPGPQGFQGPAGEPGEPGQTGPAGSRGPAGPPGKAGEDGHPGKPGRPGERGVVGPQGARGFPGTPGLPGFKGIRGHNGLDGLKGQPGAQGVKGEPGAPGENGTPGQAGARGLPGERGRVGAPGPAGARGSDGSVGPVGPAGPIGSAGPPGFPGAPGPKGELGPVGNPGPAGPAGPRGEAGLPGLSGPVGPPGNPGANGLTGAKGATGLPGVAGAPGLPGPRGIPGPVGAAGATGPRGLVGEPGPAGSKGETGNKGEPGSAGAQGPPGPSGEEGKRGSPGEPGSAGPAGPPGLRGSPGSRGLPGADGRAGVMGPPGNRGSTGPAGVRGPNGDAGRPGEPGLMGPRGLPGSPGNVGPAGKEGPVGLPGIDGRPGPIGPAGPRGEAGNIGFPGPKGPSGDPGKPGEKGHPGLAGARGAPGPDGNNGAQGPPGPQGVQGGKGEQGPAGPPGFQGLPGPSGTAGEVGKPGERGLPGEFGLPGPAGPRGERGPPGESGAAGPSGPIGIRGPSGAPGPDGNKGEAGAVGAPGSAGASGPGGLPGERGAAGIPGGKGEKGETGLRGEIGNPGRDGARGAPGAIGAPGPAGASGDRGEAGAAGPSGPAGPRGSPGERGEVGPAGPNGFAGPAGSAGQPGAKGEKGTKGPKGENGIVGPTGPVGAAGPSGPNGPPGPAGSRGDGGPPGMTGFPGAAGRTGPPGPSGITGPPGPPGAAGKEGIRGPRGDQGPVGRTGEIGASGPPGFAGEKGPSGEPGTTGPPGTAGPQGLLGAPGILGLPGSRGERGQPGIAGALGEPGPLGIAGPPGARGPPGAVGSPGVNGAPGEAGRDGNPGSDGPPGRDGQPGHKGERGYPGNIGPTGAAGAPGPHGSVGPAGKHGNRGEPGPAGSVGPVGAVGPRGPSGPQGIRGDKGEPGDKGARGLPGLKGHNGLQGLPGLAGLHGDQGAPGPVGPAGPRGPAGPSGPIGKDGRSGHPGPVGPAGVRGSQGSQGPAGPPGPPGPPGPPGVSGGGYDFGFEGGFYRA

Kd [1] [nM] | nucleating activity of rBSP in a collagen scaffold (hydroxyapatite nucleation) [2] [nmol] | Molecule
4.04 |  | rBSP(1-75) (from UniProt P13839 1-75) (peptide)
5.64 |  | rBSP(1-100) (from UniProt P13839 1-100) (peptide)
50.3 |  | rBSP(19-100) (from UniProt P13839 19-100) (peptide)
22.9 | 0.025 | Rat recombinant BSP (rBSP) (other, biotinylated with Sulfo-NHS-Biotin where used as the labelled protein in competition assays) FSMKNFHRRIKAEDSEENGVFKYRPRYFLYKHATYFYPPLKRFPVQGGSDSSEENGDGDSSEEEGEEEETSNEEENNEDSEGNEDQEAEAENATLSGVTASYGVETTADAGKLELAALQLPKKAGDAEGKAPKMKESDEEEEEEEEEENENEEAEVDENEQVVNGTSTNSTEVDGGNGPSGGDNGEEAEEASVTEAGAEGTTAGVRELTSYGTTTAVLLNGFQQTTPPPEAYGTTSPPARKSSTVEYGEEYEQIGNEYNTAYETYDENNGEPRGDTYRAYEDEYSYYKGHGYEGYEGQDYYYHQ

From US20090005298A1 (published 2009)
